Reference: patent US20090192084A1
Blank lines part the entries; values can stand above or below the substance they belong to.

Columns and labels:
PLAP (human) = PLAP (human) (UniProt Q9Y263); assay: Flag co-IP, 293 cells, MudPIT MS
gp78 (human) [1] = target: gp78 (human) (UniProt Q9UKV5); assay: Flag co-IP, MudPIT MS, MG132
[2] = target: Retinoblastoma-associated factor 600, UBR4 (human) (UniProt Q5T4S7); assay: Flag co-IP, MudPIT MS, MG132
Cullin 1 (human) [3] = target: Cullin 1 (human) (UniProt Q13616); assay: Flag co-IP, MudPIT MS, MG132
Cullin 3 (human) [4] = target: Cullin 3 (human) (UniProt Q13618); assay: Flag co-IP, MudPIT MS, MG132
[5] = target: CUL4- and DDB I-associated WDR protein 2, WDR26 (human) (UniProt Q9H7D7); assay: Flag co-IP, MudPIT MS, MG132
UBR2 (human) [6] = target: UBR2 (human) (UniProt Q8IWV8); assay: Flag co-IP, MudPIT MS, MG132
[7] = target: F-box//WD-repeat protein 1B, FBW1B (human) (UniProt Q9UKB1); assay: Flag co-IP, MudPIT MS, MG132
[8] = target: Kelch-like protein 22. KLEIL22 (human) (UniProt Q53GT1); assay: Flag co-IP, MudPIT MS, MG132
SKP1 (human) [9] = target: SKP1 (human) (UniProt P63208); assay: Flag co-IP, MudPIT MS, MG132
Cullin 2 (human) = Cullin 2 (human) (UniProt Q13617); assay: Flag co-IP, MudPIT MS, MG132
VCIP135 (human) = target: T1, VCIP135 (human) (UniProt Q96JH7); assay: Flag co-IP, 293 cells, MudPIT MS
T1 sequence (looked up): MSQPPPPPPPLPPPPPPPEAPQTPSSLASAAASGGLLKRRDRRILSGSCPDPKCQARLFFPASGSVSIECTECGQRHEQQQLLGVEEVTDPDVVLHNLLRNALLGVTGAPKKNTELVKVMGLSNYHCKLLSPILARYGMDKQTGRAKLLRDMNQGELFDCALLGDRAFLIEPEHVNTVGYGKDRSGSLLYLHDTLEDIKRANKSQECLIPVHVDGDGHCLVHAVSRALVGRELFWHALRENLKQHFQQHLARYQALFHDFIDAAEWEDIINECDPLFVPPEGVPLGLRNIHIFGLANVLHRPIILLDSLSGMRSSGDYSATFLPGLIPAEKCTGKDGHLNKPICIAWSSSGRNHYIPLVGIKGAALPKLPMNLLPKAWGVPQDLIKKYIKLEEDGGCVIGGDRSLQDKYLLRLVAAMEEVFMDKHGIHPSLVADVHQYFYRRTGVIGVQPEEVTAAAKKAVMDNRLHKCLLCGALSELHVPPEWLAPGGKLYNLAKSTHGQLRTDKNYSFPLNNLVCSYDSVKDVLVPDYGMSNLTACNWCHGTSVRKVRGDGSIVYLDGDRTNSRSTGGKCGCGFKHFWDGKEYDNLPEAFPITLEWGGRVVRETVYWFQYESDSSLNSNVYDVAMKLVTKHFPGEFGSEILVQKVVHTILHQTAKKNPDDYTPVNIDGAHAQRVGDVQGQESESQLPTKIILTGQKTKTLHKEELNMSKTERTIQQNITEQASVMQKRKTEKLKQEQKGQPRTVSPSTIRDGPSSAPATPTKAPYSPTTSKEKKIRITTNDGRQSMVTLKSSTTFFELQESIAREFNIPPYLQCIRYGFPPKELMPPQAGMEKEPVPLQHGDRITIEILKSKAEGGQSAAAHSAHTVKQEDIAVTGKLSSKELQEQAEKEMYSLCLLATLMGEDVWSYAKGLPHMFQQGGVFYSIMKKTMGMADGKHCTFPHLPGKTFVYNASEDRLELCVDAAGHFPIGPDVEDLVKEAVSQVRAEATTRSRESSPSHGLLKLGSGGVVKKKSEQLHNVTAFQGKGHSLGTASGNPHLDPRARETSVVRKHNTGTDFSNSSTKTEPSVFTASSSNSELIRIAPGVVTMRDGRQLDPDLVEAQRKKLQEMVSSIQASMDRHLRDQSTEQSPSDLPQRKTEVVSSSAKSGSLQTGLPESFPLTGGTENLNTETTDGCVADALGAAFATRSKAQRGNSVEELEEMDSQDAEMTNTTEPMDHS

gp78 (human) [10] = target: gp78 (human) (UniProt Q9UKV5); assay: Flag co-IP, MudPIT MS, DMSO
[11] = target: Retinoblastoma-associated factor 600, UBR4 (human) (UniProt Q5T4S7); assay: Flag co-IP, MudPIT MS, DMSO
Cullin 1 (human) [12] = target: Cullin 1 (human) (UniProt Q13616); assay: Flag co-IP, MudPIT MS, DMSO
Cullin 3 (human) [13] = target: Cullin 3 (human) (UniProt Q13618); assay: Flag co-IP, MudPIT MS, DMSO
UBR1 (human) = UBR1 (human) (UniProt Q8IWV7); assay: Flag co-IP, MudPIT MS, DMSO
UBR2 (human) [14] = target: UBR2 (human) (UniProt Q8IWV8); assay: Flag co-IP, MudPIT MS, DMSO
[15] = target: Kelch-like protein 22. KLEIL22 (human) (UniProt Q53GT1); assay: Flag co-IP, MudPIT MS, DMSO
SKP1 (human) [16] = target: SKP1 (human) (UniProt P63208); assay: Flag co-IP, MudPIT MS, DMSO
Praja 2 (human) = Praja 2 (human) (UniProt O43164); assay: Flag co-IP, MudPIT MS, DMSO
[17] = target: Kelch repeat and BTB domain-containing protein 7, KBTB7 (human) (UniProt Q8WVZ9); assay: Flag co-IP, MudPIT MS, DMSO
endogenous UFD1 (human) = target: T2, endogenous UFD1 (human) (UniProt Q92890); assay: Flag co-IP, 293 cells, MudPIT MS
T2 sequence (looked up): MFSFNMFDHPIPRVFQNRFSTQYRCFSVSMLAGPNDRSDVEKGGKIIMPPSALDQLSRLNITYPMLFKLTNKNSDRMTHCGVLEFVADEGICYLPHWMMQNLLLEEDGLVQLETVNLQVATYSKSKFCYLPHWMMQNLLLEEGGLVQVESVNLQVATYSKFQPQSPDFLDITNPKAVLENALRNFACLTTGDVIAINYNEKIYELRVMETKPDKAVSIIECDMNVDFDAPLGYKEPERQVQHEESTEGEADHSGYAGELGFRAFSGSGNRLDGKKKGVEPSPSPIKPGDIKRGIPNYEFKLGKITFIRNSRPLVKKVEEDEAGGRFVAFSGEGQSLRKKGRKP

endogenous NPL4 (human) = endogenous NPL4 (human) (UniProt Q8TAT6); assay: Flag co-IP, 293 cells, MudPIT MS
endogenous p97 (human) = endogenous p97 (human) (UniProt P55072); assay: Flag co-IP, 293 cells, MudPIT MS
[18] = target: DNA damage-binding protein I. DDB1 (human) (UniProt Q16531); assay: Flag co-IP, MudPIT MS, MG132
[19] = target: Ubiquitin conjugation factor E4 B, UBE4B (Ufd2ortholog) (human) (UniProt O95155); assay: Flag co-IP, MudPIT MS, MG132
[20] = target: DNA damage-binding protein I. DDB1 (human) (UniProt Q16531); assay: Flag co-IP, MudPIT MS, DMSO
EDD1/UBR5 (human) = EDD1/UBR5 (human) (UniProt O95071); assay: Flag co-IP, MudPIT MS, DMSO
[21] = target: Galectin-3 binding protein. LG3BP (human) (UniProt Q08380); assay: Flag co-IP, MudPIT MS, DMSO
[22] = target: Ubiquitin conjugation factor E4 B, UBE4B (Ufd2ortholog) (human) (UniProt O95155); assay: Flag co-IP, MudPIT MS, DMSO
p97-Myc = p97-Myc co-IP, 293 cells, MudPIT MS

Sequence of DNA damage-binding protein I. DDB1 (human) (Q16531 2-1140 limits assumed): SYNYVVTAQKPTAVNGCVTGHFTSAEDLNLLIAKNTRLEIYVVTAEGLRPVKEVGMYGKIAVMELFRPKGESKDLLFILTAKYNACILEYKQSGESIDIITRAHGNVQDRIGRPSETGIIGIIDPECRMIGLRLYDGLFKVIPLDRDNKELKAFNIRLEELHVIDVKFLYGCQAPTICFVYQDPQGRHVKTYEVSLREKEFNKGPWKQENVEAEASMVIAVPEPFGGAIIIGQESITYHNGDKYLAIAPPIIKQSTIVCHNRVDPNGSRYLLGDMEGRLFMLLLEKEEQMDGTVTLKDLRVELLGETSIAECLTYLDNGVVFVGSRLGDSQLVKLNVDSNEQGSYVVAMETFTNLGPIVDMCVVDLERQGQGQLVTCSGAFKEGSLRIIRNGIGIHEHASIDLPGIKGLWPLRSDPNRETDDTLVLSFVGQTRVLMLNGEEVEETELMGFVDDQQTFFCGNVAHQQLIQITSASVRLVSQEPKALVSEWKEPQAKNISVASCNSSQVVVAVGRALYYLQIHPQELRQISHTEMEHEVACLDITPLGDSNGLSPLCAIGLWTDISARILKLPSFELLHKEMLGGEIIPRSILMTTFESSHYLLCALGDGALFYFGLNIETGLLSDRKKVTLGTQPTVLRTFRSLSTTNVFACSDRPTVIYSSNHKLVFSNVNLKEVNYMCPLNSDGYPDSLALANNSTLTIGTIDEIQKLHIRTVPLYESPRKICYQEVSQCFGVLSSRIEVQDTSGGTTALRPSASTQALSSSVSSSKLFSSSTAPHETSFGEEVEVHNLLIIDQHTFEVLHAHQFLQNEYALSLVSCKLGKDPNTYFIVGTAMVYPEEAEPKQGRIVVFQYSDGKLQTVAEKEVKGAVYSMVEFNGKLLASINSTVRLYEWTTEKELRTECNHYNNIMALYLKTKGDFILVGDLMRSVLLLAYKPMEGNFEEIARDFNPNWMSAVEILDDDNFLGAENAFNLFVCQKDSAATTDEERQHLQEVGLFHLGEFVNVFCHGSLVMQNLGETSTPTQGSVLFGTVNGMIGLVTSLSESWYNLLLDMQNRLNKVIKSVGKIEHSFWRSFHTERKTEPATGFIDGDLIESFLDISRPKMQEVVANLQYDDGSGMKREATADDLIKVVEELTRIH
Sequence of Cullin 3 (human) (Q13618 2-768 limits assumed): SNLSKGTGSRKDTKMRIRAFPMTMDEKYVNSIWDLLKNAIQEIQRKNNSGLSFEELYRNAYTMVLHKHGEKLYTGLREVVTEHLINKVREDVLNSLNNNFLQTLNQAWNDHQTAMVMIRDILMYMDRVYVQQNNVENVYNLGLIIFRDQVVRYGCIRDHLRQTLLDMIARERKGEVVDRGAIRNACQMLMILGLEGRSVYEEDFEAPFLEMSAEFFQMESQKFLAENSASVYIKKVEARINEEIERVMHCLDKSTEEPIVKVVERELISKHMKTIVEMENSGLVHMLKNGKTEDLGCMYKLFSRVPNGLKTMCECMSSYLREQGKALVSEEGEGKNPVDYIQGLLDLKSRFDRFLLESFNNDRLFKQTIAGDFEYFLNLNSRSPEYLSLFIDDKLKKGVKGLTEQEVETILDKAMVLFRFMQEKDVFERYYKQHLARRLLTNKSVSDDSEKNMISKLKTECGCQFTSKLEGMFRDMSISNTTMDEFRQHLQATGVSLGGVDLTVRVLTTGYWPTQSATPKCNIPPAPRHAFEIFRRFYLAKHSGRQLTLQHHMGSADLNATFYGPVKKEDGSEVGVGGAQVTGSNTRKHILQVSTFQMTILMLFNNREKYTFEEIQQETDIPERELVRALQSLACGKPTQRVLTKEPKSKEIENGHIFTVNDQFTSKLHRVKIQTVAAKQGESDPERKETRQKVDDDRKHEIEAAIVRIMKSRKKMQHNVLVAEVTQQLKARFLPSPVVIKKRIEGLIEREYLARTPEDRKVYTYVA
Sequence of Cullin 1 (human) (Q13616 whole entry): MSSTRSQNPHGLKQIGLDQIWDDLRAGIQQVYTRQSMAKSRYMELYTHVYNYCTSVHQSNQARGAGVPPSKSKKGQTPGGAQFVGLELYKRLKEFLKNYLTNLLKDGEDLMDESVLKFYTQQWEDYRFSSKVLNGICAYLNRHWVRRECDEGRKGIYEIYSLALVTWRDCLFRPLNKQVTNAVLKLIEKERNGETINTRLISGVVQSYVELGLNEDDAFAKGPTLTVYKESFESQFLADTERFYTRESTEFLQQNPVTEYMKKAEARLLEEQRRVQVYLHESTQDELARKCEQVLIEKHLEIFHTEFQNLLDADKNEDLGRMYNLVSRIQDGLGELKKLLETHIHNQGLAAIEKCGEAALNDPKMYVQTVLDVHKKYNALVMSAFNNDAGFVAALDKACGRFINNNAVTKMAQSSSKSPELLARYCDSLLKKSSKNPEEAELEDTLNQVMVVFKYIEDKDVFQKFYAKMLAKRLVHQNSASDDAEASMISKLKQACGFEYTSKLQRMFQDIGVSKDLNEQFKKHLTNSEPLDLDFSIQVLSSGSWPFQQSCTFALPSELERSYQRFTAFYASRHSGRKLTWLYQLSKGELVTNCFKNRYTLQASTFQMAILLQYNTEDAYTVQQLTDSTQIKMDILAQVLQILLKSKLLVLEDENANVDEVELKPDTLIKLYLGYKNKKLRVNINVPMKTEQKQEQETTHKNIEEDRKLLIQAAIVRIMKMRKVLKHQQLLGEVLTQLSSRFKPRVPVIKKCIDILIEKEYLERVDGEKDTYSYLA
Sequence of Cullin 2 (human) (Q13617 whole entry): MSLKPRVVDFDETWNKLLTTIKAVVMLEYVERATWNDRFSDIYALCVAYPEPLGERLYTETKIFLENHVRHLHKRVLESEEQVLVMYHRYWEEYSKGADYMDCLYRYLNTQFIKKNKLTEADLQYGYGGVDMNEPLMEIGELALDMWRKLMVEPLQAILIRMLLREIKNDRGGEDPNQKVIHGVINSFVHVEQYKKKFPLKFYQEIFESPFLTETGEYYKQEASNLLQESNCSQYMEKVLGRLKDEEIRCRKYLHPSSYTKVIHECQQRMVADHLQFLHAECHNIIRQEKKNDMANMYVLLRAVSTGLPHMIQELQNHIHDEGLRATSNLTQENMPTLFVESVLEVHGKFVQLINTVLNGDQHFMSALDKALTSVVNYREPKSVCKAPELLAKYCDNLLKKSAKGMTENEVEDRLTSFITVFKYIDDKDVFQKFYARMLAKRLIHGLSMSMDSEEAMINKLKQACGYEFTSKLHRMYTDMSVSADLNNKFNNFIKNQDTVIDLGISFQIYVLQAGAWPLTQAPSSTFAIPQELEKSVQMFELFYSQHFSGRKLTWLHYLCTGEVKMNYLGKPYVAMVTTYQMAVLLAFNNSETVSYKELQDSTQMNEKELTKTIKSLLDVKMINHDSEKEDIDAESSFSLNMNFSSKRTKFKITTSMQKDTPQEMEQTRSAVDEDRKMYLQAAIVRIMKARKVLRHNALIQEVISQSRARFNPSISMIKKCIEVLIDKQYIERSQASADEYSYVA
Sequence of F-box//WD-repeat protein 1B, FBW1B (human) (Q9UKB1 whole entry): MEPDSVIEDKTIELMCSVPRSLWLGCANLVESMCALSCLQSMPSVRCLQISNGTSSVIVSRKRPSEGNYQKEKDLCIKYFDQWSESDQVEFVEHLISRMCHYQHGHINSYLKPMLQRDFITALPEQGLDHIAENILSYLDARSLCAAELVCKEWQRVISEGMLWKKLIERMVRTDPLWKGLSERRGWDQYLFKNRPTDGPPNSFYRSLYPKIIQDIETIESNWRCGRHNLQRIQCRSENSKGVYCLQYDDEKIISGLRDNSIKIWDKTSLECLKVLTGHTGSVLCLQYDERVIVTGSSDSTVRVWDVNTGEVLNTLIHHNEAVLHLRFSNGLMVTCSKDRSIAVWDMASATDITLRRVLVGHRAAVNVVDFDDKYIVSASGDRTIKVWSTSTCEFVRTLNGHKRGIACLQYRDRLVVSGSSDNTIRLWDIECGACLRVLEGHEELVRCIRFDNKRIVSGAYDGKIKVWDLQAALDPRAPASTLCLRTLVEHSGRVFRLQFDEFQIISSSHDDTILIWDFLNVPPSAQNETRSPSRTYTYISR
Sequence of PLAP (human) (Q9Y263 whole entry): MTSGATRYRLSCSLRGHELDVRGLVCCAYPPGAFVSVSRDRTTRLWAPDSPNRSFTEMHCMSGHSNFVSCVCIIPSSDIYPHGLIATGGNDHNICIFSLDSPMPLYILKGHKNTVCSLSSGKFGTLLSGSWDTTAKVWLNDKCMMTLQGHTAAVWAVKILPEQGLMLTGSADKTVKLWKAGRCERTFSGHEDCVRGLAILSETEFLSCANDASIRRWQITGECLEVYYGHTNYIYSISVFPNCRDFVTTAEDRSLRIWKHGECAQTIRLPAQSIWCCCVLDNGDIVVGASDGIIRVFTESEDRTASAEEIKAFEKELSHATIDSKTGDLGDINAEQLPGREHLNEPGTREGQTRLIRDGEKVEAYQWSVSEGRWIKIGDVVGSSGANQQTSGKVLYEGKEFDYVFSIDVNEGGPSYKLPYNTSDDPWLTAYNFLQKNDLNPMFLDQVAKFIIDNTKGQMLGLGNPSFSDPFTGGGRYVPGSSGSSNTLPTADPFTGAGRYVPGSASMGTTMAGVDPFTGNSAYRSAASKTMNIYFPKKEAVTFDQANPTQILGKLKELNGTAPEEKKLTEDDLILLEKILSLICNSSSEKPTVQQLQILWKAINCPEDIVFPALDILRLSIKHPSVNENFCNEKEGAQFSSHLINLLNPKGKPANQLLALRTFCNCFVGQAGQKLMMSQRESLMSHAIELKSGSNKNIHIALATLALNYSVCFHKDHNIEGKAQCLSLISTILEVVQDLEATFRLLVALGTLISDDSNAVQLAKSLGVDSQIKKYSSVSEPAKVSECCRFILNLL
Sequence of SKP1 (human) (P63208 2-163 limits assumed): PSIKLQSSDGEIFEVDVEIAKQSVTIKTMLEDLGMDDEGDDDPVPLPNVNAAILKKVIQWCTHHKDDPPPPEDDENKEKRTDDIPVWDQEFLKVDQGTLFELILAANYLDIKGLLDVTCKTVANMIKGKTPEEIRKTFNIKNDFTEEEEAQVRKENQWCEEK

Substance: Flag-ASPL (from UniProt Q9BZE9 1-553)
- sequence count (PLAP (human)): 10
- sequence coverage (PLAP (human)): 22.8%
- spectrum count (PLAP (human)): 10

Substance: Flag-FAF1 (from UniProt Q9UNN5 1-650)
- abundance factor (AF) (gp78 (human) [1]): 8.6
- sequence count (gp78 (human) [1]): 4
- spectrum count (gp78 (human) [1]): 6
- abundance factor (AF) [2]: 10.2
- sequence count [2]: 47
- spectrum count [2]: 56
- abundance factor (AF) (Cullin 1 (human) [3]): 8.4
- sequence count (Cullin 1 (human) [3]): 5
- spectrum count (Cullin 1 (human) [3]): 7
- abundance factor (AF) (Cullin 3 (human) [4]): 14.1
- sequence count (Cullin 3 (human) [4]): 12
- spectrum count (Cullin 3 (human) [4]): 12
- abundance factor (AF) [5]: 8.9
- sequence count [5]: 5
- spectrum count [5]: 5
- abundance factor (AF) (UBR2 (human) [6]): 1
- sequence count (UBR2 (human) [6]): 2
- spectrum count (UBR2 (human) [6]): 2
- abundance factor (AF) [7]: 3.4
- sequence count [7]: 2
- spectrum count [7]: 2
- abundance factor (AF) [8]: 11.7
- sequence count [8]: 8
- spectrum count [8]: 8
- abundance factor (AF) (SKP1 (human) [9]): 33.6
- sequence count (SKP1 (human) [9]): 4
- spectrum count (SKP1 (human) [9]): 6
- abundance factor (AF) (Cullin 2 (human)): 7.2
- sequence count (Cullin 2 (human)): 6
- spectrum count (Cullin 2 (human)): 6
- sequence count (VCIP135 (human)): 5
- sequence coverage (VCIP135 (human)): 5.9%
- spectrum count (VCIP135 (human)): 5
- sequence count (PLAP (human)): 2
- sequence coverage (PLAP (human)): 4.8%
- spectrum count (PLAP (human)): 2
- abundance factor (AF) (gp78 (human) [10]): 2.7
- sequence count (gp78 (human) [10]): 2
- spectrum count (gp78 (human) [10]): 2
- abundance factor (AF) [11]: 1.6
- sequence count [11]: 9
- spectrum count [11]: 9
- abundance factor (AF) (Cullin 1 (human) [12]): 9.1
- sequence count (Cullin 1 (human) [12]): 6
- spectrum count (Cullin 1 (human) [12]): 8
- abundance factor (AF) (Cullin 3 (human) [13]): 24.6
- abundance factor (AF) (UBR1 (human)): 1
- sequence count (UBR1 (human)): 2
- spectrum count (UBR1 (human)): 2
- abundance factor (AF) (UBR2 (human) [14]): 2
- sequence count (UBR2 (human) [14]): 4
- spectrum count (UBR2 (human) [14]): 4
- abundance factor (AF) [15]: 8.3
- sequence count [15]: 6
- spectrum count [15]: 6
- abundance factor (AF) (SKP1 (human) [16]): 10.7
- sequence count (SKP1 (human) [16]): 2
- spectrum count (SKP1 (human) [16]): 2
- abundance factor (AF) (Praja 2 (human)): 3.8
- sequence count (Praja 2 (human)): 3
- spectrum count (Praja 2 (human)): 3
- abundance factor (AF) [17]: 2.6
- sequence count [17]: 2
- spectrum count [17]: 2

Substance: Flag-UBXD3 (from UniProt Q96LJ8 1-280)
- sequence count (endogenous UFD1 (human)): 3
- sequence coverage (endogenous UFD1 (human)): 12.2%
- spectrum count (endogenous UFD1 (human)): 3
- sequence count (endogenous NPL4 (human)): 7
- sequence coverage (endogenous NPL4 (human)): 14.1%
- spectrum count (endogenous NPL4 (human)): 9

Substance: Flag-UBXD6 (from UniProt O00124 1-270)
- sequence count (VCIP135 (human)): 2
- sequence coverage (VCIP135 (human)): 2.7%
- spectrum count (VCIP135 (human)): 2
- sequence count (endogenous UFD1 (human)): 4
- sequence coverage (endogenous UFD1 (human)): 19.2%
- spectrum count (endogenous UFD1 (human)): 5
- sequence count (endogenous NPL4 (human)): 9
- sequence coverage (endogenous NPL4 (human)): 16.5%
- spectrum count (endogenous NPL4 (human)): 16

Substance: Flag-p47 (from UniProt O35987 1-370)
- abundance factor (AF) (gp78 (human) [1]): 1.7
- sequence count (gp78 (human) [1]): 3
- spectrum count (gp78 (human) [1]): 3
- abundance factor (AF) [18]: 1
- sequence count [18]: 3
- spectrum count [18]: 3
- abundance factor (AF) [2]: 0.2
- sequence count [2]: 2
- spectrum count [2]: 3
- abundance factor (AF) [19]: 1.4
- sequence count [19]: 5
- spectrum count [19]: 5
- abundance factor (AF) (Cullin 2 (human)): 1
- sequence count (Cullin 2 (human)): 2
- spectrum count (Cullin 2 (human)): 2
- sequence count (PLAP (human)): 27
- sequence coverage (PLAP (human)): 42.9%
- spectrum count (PLAP (human)): 38
- abundance factor (AF) [20]: 0.5
- sequence count [20]: 2
- spectrum count [20]: 2
- abundance factor (AF) (EDD1/UBR5 (human)): 0.2
- sequence count (EDD1/UBR5 (human)): 2
- spectrum count (EDD1/UBR5 (human)): 2
- abundance factor (AF) [21]: 1.5
- sequence count [21]: 3
- spectrum count [21]: 3
- abundance factor (AF) [22]: 1.1
- sequence count [22]: 5
- spectrum count [22]: 5

Further lines, results first:

- sequence count (VCIP135 (human)): 2
- sequence coverage (VCIP135 (human)): 2.5%
- spectrum count (VCIP135 (human)): 2
- sequence count (PLAP (human)): 3
- sequence coverage (PLAP (human)): 7.5%
- spectrum count (PLAP (human)): 3
Substance: Flag-UBXD1 (from UniProt Q9BZV1 1-441)

- sequence count (VCIP135 (human)): 20
- sequence coverage (VCIP135 (human)): 27.5%
- spectrum count (VCIP135 (human)): 25
- sequence count (endogenous NPL4 (human)): 2
- sequence coverage (endogenous NPL4 (human)): 5.2%
- spectrum count (endogenous NPL4 (human)): 3
- sequence count (endogenous p97 (human)): 124
- sequence coverage (endogenous p97 (human)): 75.5%
- spectrum count (endogenous p97 (human)): 783
- sequence count (PLAP (human)): 6
- sequence coverage (PLAP (human)): 11.6%
- spectrum count (PLAP (human)): 6
Substance: Flag-UBXD5

- sequence count (p97-Myc): 7
- sequence coverage (p97-Myc): 8.2%
- spectrum count (p97-Myc): 11
Substance: endogenous FAF1 (from UniProt Q9UNN5 1-650)
